# According to patent publication US20020061531, “Detection of binding factors with fluorescence polarization” (published 2002):
# Read-outs that look alike come from different tables or passages of the source.
# How the values were obtained:
# [1] = target: T1, SSB protein (UniProt P0AGE0 P0AGE0:2-178); assay: FP; CE/LIFP anisotropy 0.05 to 0.25; 25 mM Na2B4O7 pH 9.1; conditions: tags: Sigma; unlabeled; chain copies: tetramer (stated); label: fluorescein
# [2] = target: T1, SSB protein; assay: CE mobility; 25 mM Na2B4O7 pH 9.1, SSB in running buffer; Hill fit; conditions: tags: Sigma; unlabeled; chain copies: tetramer (stated); label: fluorescein
# [3] = target: MMLV reverse transcriptase (Moloney murine leukemia virus, UniProt P03355 P03355:660-1330)
# [4] = target: T2, HIV-1 reverse transcriptase (p66/p51) (Human immunodeficiency virus 1, UniProt P04585;P04585 P04585:588-1147,P04585:588-1027)
# [5] = target: T1, SSB protein; assay: FP; 1:1 complex; mobility and anisotropy gave similar values; 2:1 complex also seen; A=0.23; conditions: tags: Sigma; unlabeled; chain copies: tetramer (stated); label: fluorescein
# [6] = target: SSB protein, FITC-labeled (UniProt P0AGE0 P0AGE0:2-178); assay: CE mobility shift of FITC-SSB, anisotropy change only ~0.02; pH 9.1; conditions: tags: FITC (5.3 dye per protein), Sigma; chain copies: tetramer (stated)
# Chain of SSB protein, FITC-labeled (P0AGE0 2-178, one chain of several): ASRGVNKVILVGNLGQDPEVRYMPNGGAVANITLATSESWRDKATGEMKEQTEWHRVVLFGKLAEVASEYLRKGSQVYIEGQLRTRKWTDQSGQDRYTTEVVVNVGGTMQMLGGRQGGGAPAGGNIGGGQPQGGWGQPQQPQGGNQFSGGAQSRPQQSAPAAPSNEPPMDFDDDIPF
# [7] = target: trp repressor (Escherichia coli, UniProt P0A881 P0A881:2-108); assay: FP; CE/LIFP polarization 0.11 free to 0.25 with repressor; trp binding buffer pH 7.6
# [8] = target: T2, HIV-1 reverse transcriptase (p66/p51); assay: CE/LIF; two complex peaks; lower binding constant than RT 26; 1xTBE; conditions: tags: Worthington Biochemicals; chain copies: heterodimer (stated)
# T1 sequence (P0AGE0 2-178, one chain of several): as above
binder,measurement,setting,value
CGCGATACGCC (ssDNA) [F-11-mer],Ka,[1],~5e+06 M⁻¹
same,Ka,[2],~4.4e+06 M⁻¹
RT 26 aptamer (ssDNA) DNA: ATCCGCCTGATTAGCGATACTTACGTGAGCGTGCTGTCCCCTAAAGGTGATACGTCACTTGAGCAAAATCACCTGCAGGGG,binding result,[3],no binding
same,binding result,[4],binds
CCTTAAGCTTCCTCAACCACTTACCATACTCGAGATT (ssDNA) [F-37-mer],Ka,[5],~2e+07 M⁻¹
TTTTTTTTTTTTTTTTTT (ssDNA) [d(pT)18],binding result,[6],binds
trp operator 25 bp (dsDNA) DNA 1: ATCGAACTAGTTAACTAGTACGCAA DNA 2: TTGCGTACTAGTTAACTAGTTCGAT,binding result,[7],binds
RT 12 aptamer (ssDNA) DNA: ATCTACTGGATTAGCGATACTCGATTAGGTCCCCTGCCGCTAAACCATACCGCGGTAACTTGAGCAAAATCACCACTGCAGGGG,binding result,[8],binds
